According to article PMC8124061:
Where “and” joins values, the source holds several entries; their conditions need not be identical. Equal entries are not always repeated.

What was measured:
[1] = biological target: dimeric ubiquinol:cytochrome c oxidoreductase (complex III, III2) of Euglena gracilis mitochondria (Euglena gracilis (endogenous in mitochondria)); test: native gel or EMSA; two-dimensional BN/SDS Tricine-PAGE (12%) of digitonin-extracted complexes; subunits told by their electrophoretic profile
[2] = biological target: F1FO ATP synthase (complex V) of Euglena gracilis mitochondria (Euglena gracilis (endogenous in mitochondria)); test: native gel or EMSA; BN-PAGE, 3-10% acrylamide gradient, of mitochondria solubilised with DDM 4.0 g/g protein (3.2% w/v), 4 °C, pH 8.4, 100 mM NaCl; Coomassie and in-gel NADH-dehydrogenase and ATPase activity
[3] = biological target: F1FO ATP synthase (complex V) of Euglena gracilis mitochondria (Euglena gracilis (endogenous in mitochondria)); test: native gel or EMSA; two-dimensional BN/BN-PAGE of digitonin-solubilised mitochondria; second BN-PAGE with 0.02% DDM in the cathode buffer, which dissociates the supercomplexes; NADH-dehydrogenase activity stain
[4] = biological target: F1FO ATP synthase (complex V) of Euglena gracilis mitochondria (Euglena gracilis (endogenous in mitochondria)); test: native gel or EMSA; purified dimeric ATP synthase incubated with DDM at room temperature for 10 min; species assigned by size; kind of gel not told in the legend
[5] = biological target: F1FO ATP synthase (complex V) of Euglena gracilis mitochondria (Euglena gracilis (endogenous in mitochondria)); test: native gel or EMSA; BN-PAGE, 3-10% acrylamide gradient with 0.05% digitonin, of mitochondria solubilised with digitonin 8.0 g/g protein (6.4% w/v; up to 12 g/g), 4 °C; Coomassie and in-gel NADH-dehydrogenase and ATPase activity
[6] = biological target: F1FO ATP synthase (complex V) of Euglena gracilis mitochondria (Euglena gracilis (endogenous in mitochondria)); test: native gel or EMSA; BN-PAGE, 3-10% acrylamide gradient, of mitochondria solubilised with DDM 4.0 g/g protein (3.2% w/v), 4 °C, pH 8.4, 100 mM NaCl; Coomassie and in-gel NADH-dehydrogenase and ATPase activity; remark: listed apart in the source

stoichiometry N [1]	stoichiometry N [2]	stoichiometry N [3]	stoichiometry N [4]	stoichiometry N [5]	stoichiometry N [6]	Substance
1 and 2						cytochrome c oxidase (complex IV) of Euglena gracilis mitochondria
	2	4	2	2 and 4	4	F1FO ATP synthase (complex V) of Euglena gracilis mitochondria
